Results taken from the supplement of paper PMC7877785.
± gives the uncertainty stated by the source.

Assay: self-splicing fitness, log relative to wild type (ln ratio); higher = more splicing; Tetrahymena group I intron in knt gene, E. coli kanamycin selection, DiMSum; sequences stand for … in CUCUCU…GGAGGGAAAAGUUAUCAGGCAUGCACCUGGUAGCUAGUCUUUAAACCAAUAGAUUGCAUCGGUUUAAAAGGCAAGACCGUCAAAUUGCGGGAAAGGGGUCAACAGCCGUUCAGUACCAAGUCUCAGGGGAAACUUUGAGAUGGCCUUGCAAAGGGUAUGGUAAUAAGCUGACGGACAUGGUCCUAACCACGCAGCCAAGUCCUAAGUCAACAGAUCUUCUGUUGAUAUGGAUGCAGUUCACAGACUAAAUGUCGGUCGGGGAAGAUGUAUUCUUCUCAUAAGAUAUAGUCGGACCUCUCCUUAAUGGGAGCUAGCGGAUGAAGUGAUGCAACACUGGAGCCGCUGGGAACUAAUUUGUAUGCGAAAGUAUAUUGAUUAGUUUUGGAGUACUCGUGGUCG
Procedure, shortened: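 Six replicate transformations of E. coli BL21(DE3) with a pET-22b(+) library were grown overnight at 37°C or 30°C. The library randomised all eight P1ex-region intron nucleotides, the intron lying in the knt kanamycin-resistance gene, and plates were LB agar with or without 25 μg/mL kanamycin plus 100 μg/mL carbenicillin, 50 μM IPTG and 0.2% rhamnose. Pooled colonies were amplicon-sequenced on an Illumina HiSeq 2500, and fitness is the DiMSum error-weighted combination of wild-type-normalised replicate fold changes, kanamycin versus none.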

ACUCAGCAAUAUUACGUCCG
self-splicing fitness (ln) (30 °C): -2.16 ± 0.14
self-splicing fitness (ln) (37 °C): -1.21 ± 0.15

ACUAAGCAAUAUUACGUACU
self-splicing fitness (ln) (30 °C): 0.135 ± 0.084
self-splicing fitness (ln) (37 °C): 0.635 ± 0.12

GGCCAGCAAUAUUACGUUUU
self-splicing fitness (ln) (30 °C): -1.31 ± 0.065
self-splicing fitness (ln) (37 °C): -1.22 ± 0.079

AAAGAGCAAUAUUACGCAUU
self-splicing fitness (ln) (30 °C): -3.61 ± 0.19
self-splicing fitness (ln) (37 °C): -1.88 ± 0.21

AACUAGCAAUAUUACGGGAA
self-splicing fitness (ln) (30 °C): -1.5 ± 0.074
self-splicing fitness (ln) (37 °C): -1.13 ± 0.084

AUAAAGCAAUAUUACGAGCC
self-splicing fitness (ln) (30 °C): -0.929 ± 0.14
self-splicing fitness (ln) (37 °C): -1.35 ± 0.19

CAGUAGCAAUAUUACGUUGA
self-splicing fitness (ln) (37 °C): -2.14 ± 0.16

CUUAAGCAAUAUUACGCGUU
self-splicing fitness (ln) (30 °C): -4.44 ± 0.23
self-splicing fitness (ln) (37 °C): -3.85 ± 0.25

UGGUAGCAAUAUUACGACGC
self-splicing fitness (ln) (37 °C): 1.38 ± 0.5

AGUAAGCAAUAUUACGUGCA
self-splicing fitness (ln) (30 °C): -1.36 ± 0.085
self-splicing fitness (ln) (37 °C): -0.712 ± 0.092

CACGAGCAAUAUUACGCUUU
self-splicing fitness (ln) (30 °C): -3.71 ± 0.22
self-splicing fitness (ln) (37 °C): -2.89 ± 0.2

GGAUAGCAAUAUUACGUGAU
self-splicing fitness (ln) (30 °C): -2.44 ± 0.06
self-splicing fitness (ln) (37 °C): -1.06 ± 0.074

CGACAGCAAUAUUACGAUUG
self-splicing fitness (ln) (30 °C): -0.746 ± 0.07
self-splicing fitness (ln) (37 °C): -0.877 ± 0.091

CAUGAGCAAUAUUACGUGUC
self-splicing fitness (ln) (30 °C): -2.98 ± 0.17
self-splicing fitness (ln) (37 °C): -1.82 ± 0.22

ACUUAGCAAUAUUACGCCAG
self-splicing fitness (ln) (30 °C): -2.16 ± 0.15
self-splicing fitness (ln) (37 °C): -0.941 ± 0.17

GGGUAGCAAUAUUACGUAGG
self-splicing fitness (ln) (30 °C): -2.74 ± 0.24
self-splicing fitness (ln) (37 °C): -1.5 ± 0.2

AAACAGCAAUAUUACGGAAG
self-splicing fitness (ln) (30 °C): -3.7 ± 0.2
self-splicing fitness (ln) (37 °C): -1.8 ± 0.17

AUGGAGCAAUAUUACGGCGG
self-splicing fitness (ln) (30 °C): -3.85 ± 0.37
self-splicing fitness (ln) (37 °C): -1.82 ± 0.34

GACGAGCAAUAUUACGCACA
self-splicing fitness (ln) (30 °C): -2.32 ± 0.15
self-splicing fitness (ln) (37 °C): -0.917 ± 0.14

UGAUAGCAAUAUUACGACAA
self-splicing fitness (ln) (37 °C): -2.07 ± 0.35

GGGUAGCAAUAUUACGUCCG
self-splicing fitness (ln) (30 °C): -0.212 ± 0.15
self-splicing fitness (ln) (37 °C): -0.15 ± 0.19

UAUAAGCAAUAUUACGUCAC
self-splicing fitness (ln) (30 °C): -2.89 ± 0.33
self-splicing fitness (ln) (37 °C): -1.38 ± 0.32

GUGAAGCAAUAUUACGCCCU
self-splicing fitness (ln) (30 °C): -0.176 ± 0.13
self-splicing fitness (ln) (37 °C): 0.602 ± 0.15

GACUAGCAAUAUUACGCAAU
self-splicing fitness (ln) (30 °C): -1.34 ± 0.19
self-splicing fitness (ln) (37 °C): -1.38 ± 0.17

CUCAAGCAAUAUUACGUCCU
self-splicing fitness (ln) (30 °C): -4 ± 0.27
self-splicing fitness (ln) (37 °C): -2.79 ± 0.19

AGAGAGCAAUAUUACGGGGU
self-splicing fitness (ln) (37 °C): -2.65 ± 0.26

GGGUAGCAAUAUUACGCGAA
self-splicing fitness (ln) (30 °C): -0.995 ± 0.16
self-splicing fitness (ln) (37 °C): -0.21 ± 0.13

CAGAAGCAAUAUUACGCAUU
self-splicing fitness (ln) (30 °C): -4.37 ± 0.27
self-splicing fitness (ln) (37 °C): -2.92 ± 0.2

CUCAAGCAAUAUUACGAAUG
self-splicing fitness (ln) (30 °C): -2.96 ± 0.15
self-splicing fitness (ln) (37 °C): -1.66 ± 0.2

CUCCAGCAAUAUUACGAACC
self-splicing fitness (ln) (30 °C): -3.49 ± 0.26
self-splicing fitness (ln) (37 °C): -1.91 ± 0.32

GCUCAGCAAUAUUACGUACG
self-splicing fitness (ln) (30 °C): -1.72 ± 0.11
self-splicing fitness (ln) (37 °C): -0.485 ± 0.09

AGCAAGCAAUAUUACGGGAG
self-splicing fitness (ln) (30 °C): -3.68 ± 0.19
self-splicing fitness (ln) (37 °C): -1.78 ± 0.13

CACGAGCAAUAUUACGUAUC
self-splicing fitness (ln) (30 °C): -2.94 ± 0.38
self-splicing fitness (ln) (37 °C): -2.81 ± 0.36

UCAUAGCAAUAUUACGAUCA
self-splicing fitness (ln) (30 °C): -1.3 ± 0.13
self-splicing fitness (ln) (37 °C): -0.941 ± 0.16

GAAUAGCAAUAUUACGGGAU
self-splicing fitness (ln) (30 °C): -2.06 ± 0.13
self-splicing fitness (ln) (37 °C): -2.06 ± 0.16

AGUCAGCAAUAUUACGAGAU
self-splicing fitness (ln) (30 °C): -2.61 ± 0.11
self-splicing fitness (ln) (37 °C): -1.76 ± 0.1

CUGUAGCAAUAUUACGUGGC
self-splicing fitness (ln) (37 °C): 0.0373 ± 0.2

UUUGAGCAAUAUUACGAAGC
self-splicing fitness (ln) (30 °C): -3.58 ± 0.42
self-splicing fitness (ln) (37 °C): -1.64 ± 0.33

UAGAAGCAAUAUUACGUGAA
self-splicing fitness (ln) (30 °C): -2.05 ± 0.07
self-splicing fitness (ln) (37 °C): -1.5 ± 0.092

UAAAAGCAAUAUUACGCCAA
self-splicing fitness (ln) (30 °C): -2.34 ± 0.22
self-splicing fitness (ln) (37 °C): -1.63 ± 0.18
